Measured values published in patent US20250263470A1.

Tests used:
[1] = target: HA of influenza B virus B/Hong Kong/330/2001 (victoria) (influenza B virus B/Hong Kong/330/2001); test: cell-based or functional assay
[2] = target: HA of influenza B virus B/Hong Kong/5/72 (influenza B virus B/Hong Kong/5/72); test: cell-based or functional assay
[3] = target: HA of influenza B virus B/Lee/40 (influenza B virus B/Lee/40) (UniProt P03460); test: cell-based or functional assay
[4] = target: HA of influenza B virus B/Malaysia/2506/2004 (victoria) (influenza B virus B/Malaysia/2506/2004); test: cell-based or functional assay
[5] = target: HA of influenza B virus B/Ohio/1/2005 (victoria) (influenza B virus B/Ohio/1/2005); test: cell-based or functional assay
[6] = target: HA of influenza B virus B/Shanghai/361/02 (yamagata) (influenza B virus B/Shanghai/361/02); test: cell-based or functional assay
[7] = target: HA of influenza B virus B/Sichuan/379/99 (yamagata) (influenza B virus B/Sichuan/379/99); test: cell-based or functional assay
[8] = target: HA of influenza B virus B/Yamagata/16/88 (yamagata) (influenza B virus B/Yamagata/16/88); test: cell-based or functional assay
[9] = target: HA of influenza B virus ca B/Ann Arbor/1/66 (influenza B virus B/Ann Arbor/1/66); test: cell-based or functional assay
[10] = target: HA of influenza B virus ca B/Ann Arbor/2/94 (yamagata) (influenza B virus B/Ann Arbor/2/94); test: cell-based or functional assay
[11] = target: HA of influenza B virus ca B/Beijing/243/97 (victoria) (influenza B virus B/Beijing/243/97); test: cell-based or functional assay
[12] = target: HA of influenza B virus ca B/Brisbane/60/2008 (victoria) (influenza B virus B/Brisbane/60/2008); test: cell-based or functional assay
[13] = target: HA of influenza B virus ca B/Georgia/02/98 (yamagata) (influenza B virus B/Georgia/02/98); test: cell-based or functional assay
[14] = target: HA of influenza B virus ca B/Johannesburg/5/99 (yamagata) (influenza B virus B/Johannesburg/5/99); test: cell-based or functional assay
[15] = target: HA of influenza B virus ca B/Victoria/504/2000 (yamagata) (influenza B virus B/Victoria/504/2000); test: cell-based or functional assay
[16] = target: HA of influenza B virus ca B/Yamanashi/166/98 (yamagata) (influenza B virus B/Yamanashi/166/98); test: cell-based or functional assay
[17] = target: recombinant HA derived from influenza A subtype H9 (A/chicken/HK/G9/97 (H9N2)) (influenza A virus A/chicken/Hong Kong/G9/97 (H9N2)); test: ELISA on coated recombinant H9 HA
[18] = target: recombinant HA derived from Victoria lineage strain B/BNE/08 (B/Brisbane/60/2008) (influenza B virus B/Brisbane/60/2008); test: ELISA on coated recombinant HA, unpurified IgG
[19] = target: recombinant HA derived from Yamagata lineage strain B/FLA/06 (B/Florida/4/2006) (influenza B virus B/Florida/4/2006); test: ELISA on coated recombinant HA, unpurified IgG
[20] = target: recombinant HA derived from Victoria lineage strain B/BNE/08 (B/Brisbane/60/2008) (influenza B virus B/Brisbane/60/2008); test: ELISA on coated recombinant HA, average of three experiments
[21] = target: recombinant HA derived from Yamagata lineage strain B/FLA/06 (B/Florida/4/2006) (influenza B virus B/Florida/4/2006); test: as above

B1: FBC-39 (antibody, V domains shown)
VH: EVQLVVSGGGLVKPGGSLRLSCAASGLSFLNAWMSWVRQAPGKGLEWVGRIKSNTDGGTTDYAAPVKGRFSISRDDSKNMLFLHMSSLRTEDTAVYYCATDGPYSDDFRSGYAARYRYFGMDVWGQGTTVTVSS
VL: DIQMTQSPSSVSASVGDRVTITCRASQDISTWLAWYQQKPGKAPKLLIYAASSLQSGVPSRFSGSGSGTDFTLTISSLQPEDFATYFCQQANSFPPTFGQGTKLEIK
- Hemagglutination Inhibition Titer [1]: 16 nM
- Neutralization (Ave IC50 ug/ml) [1]: 0.142 µg/mL
- Hemagglutination Inhibition Titer [2]: 8 nM
- Neutralization (Ave IC50 ug/ml) [2]: 0.026 µg/mL
- Hemagglutination Inhibition Titer [3]: 5 nM
- Neutralization (Ave IC50 ug/ml) [3]: 0.021 µg/mL
- Hemagglutination Inhibition Titer [4]: 20 nM
- Neutralization (Ave IC50 ug/ml) [4]: 0.079 µg/mL
- Hemagglutination Inhibition Titer [5]: 24 nM
- Hemagglutination Inhibition Titer [6]: 16 nM
- Hemagglutination Inhibition Titer [7]: 10 nM
- Neutralization (Ave IC50 ug/ml) [7]: 0.034 µg/mL
- Hemagglutination Inhibition Titer [8]: 11 nM
- Hemagglutination Inhibition Titer [9]: 6 nM
- Neutralization (Ave IC50 ug/ml) [9]: 0.061 µg/mL
- Hemagglutination Inhibition Titer [10]: 6 nM
- Neutralization (Ave IC50 ug/ml) [10]: 0.027 µg/mL
- Hemagglutination Inhibition Titer [11]: 14 nM
- Neutralization (Ave IC50 ug/ml) [11]: 0.218 µg/mL
- Hemagglutination Inhibition Titer [12]: 20 nM
- Neutralization (Ave IC50 ug/ml) [12]: 0.238 µg/mL
- Hemagglutination Inhibition Titer [13]: 16 nM
- Hemagglutination Inhibition Titer [14]: 18 nM
- Neutralization (Ave IC50 ug/ml) [14]: 0.304 µg/mL
- Hemagglutination Inhibition Titer [15]: 16 nM
- Hemagglutination Inhibition Titer [16]: 13 nM
- Neutralization (Ave IC50 ug/ml) [16]: 0.039 µg/mL
- EC50 [17]: 6.2 µg/mL
- EC50 [18]: 0.186 µg/mL
- EC50 [19]: 0.022 µg/mL
- EC50 [20]: 0.048 µg/mL
- EC50 [21]: 0.02 µg/mL
